In US20250026792A1, “SELF-ASSEMBLING PEPTIDES WITH HYALURONIC ACID BINDING DOMAINS AND METHODS OF USE THEREOF” (Northwestern University, priority 2022, published 2025):
Entries after “also recorded” stand apart in the source; their conditions may differ.

Legend:
[1] = 1H NMR of supernatant of peptide-hyaluronic acid mixtures (loss of HA and peptide from solution); type: binding; conditions: 5 mg/mL HA
Experimental: FIGS. 7A-7C show Nuclear magnetic resonant (NMR) proton spectra of representative (i) hyaluronic acid peaks and (ii) biotinyl peptide peaks and for (FIG. 7A) mPEP35, (FIG. 7B) 1-scrm, and (FIG. 7C) 17x-3 in 25 mM sodium acetate buffer at pH 5.2. Samples represent supernatant (soluble component) of mixtures with 5 mg/mL HA in variable peptide mixture of 1.25, 2.5. and 5 mg/mL.
Peptides and HA were suspended in 25 mM sodium acetate buffer (pH 5.2), made up from 19 mM sodium acetate-d3, 6 mM acetic acid-d4, 10% D2O, and 1 mg/ml DSS-D6. All samples were centrifuged at 21,000 G to remove precipitate and the supernatant was collected for analysis, as only the liquid suspension could be used. NMR spectra were collected on an Avance NEO 600 MHz spectrometer at 298K with excitation sculpting used to suppress the water signal. Number of scans and receiver gain were identical for all NMR spectra.
As higher peptide binding was accompanied by apparent gel-like structure on the substrate, the binding event may be characterized by the change in concentration of either peptide or HA remaining in the solution. ^1H NMR is an ideal method for measuring changes in concentration in solution. It provides atom-specific information that can be used to distinguish signals of biotinylated peptides (6.4 ppm) from those of hyaluronic acid (3.5 ppm) as presented in FIG. 7. Sodium acetate (pH 5.2) was chosen as the buffer since it provides better spectral quality of the amide signals than pH 7.4 buffer. Focus was placed on characterizing the binding of mPEP35, 1-scrm, and 17x-3, which reflect a positive control, a negative control, and a potent binder, respectively. Measurements were taken after centrifugation to remove gel that formed when peptide and HA are mixed. It should be noted that only HN peaks of the peptide show slight chemical shift perturbation upon addition of HA.

[2] = Circular dichroism (CD) of peptides; type: physicochemical; conditions: 20 mM Sodium Cacodylate; for Ellipticity ratio (222 nm/208 nm) / Ellipticity 208 nm / Ellipticity 222 nm: 1.25 mg/mL; for Ellipticity 208 nm / Ellipticity 222 nm: CD data given as [θ]M×10^−3; for wavelength Minimum of CD profile: 5.0 mg/mL
Experimental: Data is presented in ellipticity ([θ]M×10^−3) as a function of spectral wavelength (λ).
Sodium cacodylate (SC), 20 mM pH 7.4, without and with 20% TFE was used to reduce phosphate related background signal and enhance detected structures. Circular dichroism (CD) data were collected in millidegrees, 0, and converted to molar ellipticity, [θ]M, and are expressed in units of deg×cm^2×dmol^−1. Scan speeds and digital integration times were 500 nm/min and 1 second, respectively. The data on the Y axis of the CD plots is [θ]M×10^−3. […] Consequently, CD signals are reported in the 190-260 nm range.

[3] = Transmission electron microscopy (TEM) of peptide nanostructures; type: physicochemical
Experimental: The sample and stain were filter-dried in between steps. Samples were collected 24 hours at 37° C. after 30 minutes of sonication. All TEM was performed on a Philips FEI Technai Spirit G2 electron microscope. Peptides were incubated in both PBS and SC.

[4] = test system: extracellular matrix (ECM) components: Collagen type I, II, III and IV, elastin, hyaluronic acid and Geltrex; experiment: ECM specificity binding test, whole panel; conditions: 5.0 mg/ml peptide, FIG. 4
Experimental: (§1) Peptides were incubated 24 hours at 37° C. on collagens I-IV, elastin, hyaluronic acid, and Geltrex. Coatings (10 pig/cm^2) were previously dried overnight in milli-Q water. Overall significance was assessed using analysis of variance, with Tukey's multiple comparison post-hoc analysis between ECM groups where n=4.
(§2) Hyaluronic acid, collagens I, II, III, and IV, elastin, and Geltrex were coated onto 96-well black plates (medium binding affinity) at 10 μg/cm^2 and were dried in milli-Q water at room temperature. N-termini biotinylated peptides were added to coated plates at 0, 1, 2.5, 5 and 10 mg/ml overnight at 37° C. in phosphate buffered saline (PBS), pH 7.4, after which the plates were washed three times with PBS. Fluorescent streptavidin-488 (4 μg/mL) was added to each well and incubated at 37° C. temperature for 24 hours, then thoroughly washed with PBS. The plates were read with a fluorescence microplate reader for fluorescence intensity (Ex 490 nm, Em 525 nm). All data were normalized to the background fluorescence intensity of Streptavidin-488.

[5] = Concentration-dependent peptide binding to hyaluronic acid coating (biotin-streptavidin fluorescence)
Experimental: Peptides were incubated 24 hours at 37° C. Coatings (10 μg/cm^2) were previously dried overnight in milli-Q water. Overall significance was assessed using analysis of variance, with Tukey's multiple comparison post-hoc analysis between 1-scrm and experimental groups where n=4.
N-termini biotinylated peptides were added to coated plates at 0, 1, 2.5, 5 and 10 mg/ml overnight at 37° C. in phosphate buffered saline (PBS), pH 7.4, after which the plates were washed three times with PBS.

[6] = ECM specificity binding test, hyaluronic acid coating; conditions: 5.0 mg/ml peptide, FIG. 4
Experimental: as §1, §2

binding to the ECMs (for 17x-3: the ECMs other than hyaluronic acid) [4]: does not bind significantly
specificity of binding to ECMs [4]: high specificity
binding to hyaluronic acid with increasing concentrations of peptide (fluorescence intensity) ([5]; 0-10 mg/ml peptide, PBS pH 7.4, 37° C., HA coating 10 μg/cm^2, FIG. 3): increases dramatically
HA binding compared to mPEP35 ([5]; higher concentrations (5-10 mg/ml)): significantly stronger binder
binding to hyaluronic acid in specificity testing [6]: binds primarily
Sequence: KTKATVLIKNKQKSKNALKQKIVLLSK [Peptide 17x-3, de novo designed peptide with five B(X7)B domains]
HA spectra retained ([1]; 1.25 mg/mL peptide): ~80%
HA spectra / removal of HA from solution ([1]; 2.5 and 5 mg/mL peptide): nearly gone; also recorded: almost entirely removed; also recorded: pull all HA out of solution
peptide removed from solution ([1]; 2.5 to 5 mg/mL peptide): ~90%
Ellipticity ratio (222 nm/208 nm) [2]: 0.48
Ellipticity 208 nm [2]: −135
Ellipticity 222 nm [2]: −64.4
wavelength Minimum of CD profile [2]: 223 nm
Ellipticity ratio (222 nm/208 nm) ([2]; 20% TFE): 0.72
Ellipticity 208 nm ([2]; 20% TFE): −175
Ellipticity 222 nm ([2]; 20% TFE): −126
wavelength Minimum of CD profile ([2]; 20% TFE): 221 nm
TEM characterization, Phosphate Buffered Saline (i) ([3]; PBS pH 7.4, 0.5% w/v, 30 minutes sonication, 24 hrs at 37° C.): fibers with many striations form larger fibers and the larger fibers tend to form a mesh network
nanofiber formation in TEM, overall ([3]; both PBS and sodium cacodylate): consistent nanofibers; also recorded: predominantly form fibers with striations and furthermore form a mesh network
HA binding, overall assessment ([5]; summary and discussion statements): proficient and specific binders; also recorded: HA specific and robust binders
